Target: Purified recombinant HuFCRN/B2MG, biotinylated (human) (UniProt P55899)
Assay: BLI (ForteBio Octet); biotinylated HuFCRN/B2MG on SA biosensors

Kd: 69.7 nM
Substance: RITUXAN (Genentech), non-fused anti-CD20Ab (antibody)
